Test results from patent publication US20200048648.

How the values were obtained:
Experiment in all cases: cell_activity
[1] = system: MsCOMT_T01.1 TALE nuclease right monomer (synthetic construct); settings: value for nuclease pair; alfalfa protoplasts, 28 C, 2 days
[2] = system: MsCOMT_T02.1 TALE nuclease right monomer (synthetic construct); settings: value for nuclease pair; alfalfa protoplasts, 28 C, 2 days
[3] = system: MsCOMT_T03.1 TALE nuclease right monomer (synthetic construct); settings: value for nuclease pair; alfalfa protoplasts, 28 C, 2 days
[4] = system: MsCOMT_T02.1 TALE nuclease left monomer (synthetic construct); settings: value for nuclease pair; alfalfa protoplasts, 28 C, 2 days
[5] = system: MsCOMT_T01.1 TALE nuclease left monomer (synthetic construct); settings: value for nuclease pair; alfalfa protoplasts, 28 C, 2 days; left site boundary inferred from 15 bp spacer
[6] = system: MsCOMT_T03.1 TALE nuclease left monomer (synthetic construct); settings: value for nuclease pair; alfalfa protoplasts, 28 C, 2 days

Sequence: ACATATCAGATGAAGAA (double strand) [MsCOMT_T01.1 right half-site (top strand)]
- activity (% mutation frequency) [1]: 12.6

Sequence: CTGGACCTGGTGCTCAA (double strand) [MsCOMT_T02.1 right half-site (top strand)]
- activity (% mutation frequency) [2]: 15.9

Sequence: GCACCAGTTATGTTGGA (double strand) [MsCOMT_T03.1 right half-site (top strand)]
- activity (% mutation frequency) [3]: 14.1

Sequence: TGAACTTGATCTCTTAG (double strand) [MsCOMT_T02.1 left half-site]
- activity (% mutation frequency) [4]: 15.9

Sequence: TTCAACAGGTGAAACTC (double strand) [MsCOMT_T01.1 left half-site]
- activity (% mutation frequency) [5]: 12.6

Sequence: TTGCTTCTCAGCTACCA (double strand) [MsCOMT_T03.1 left half-site]
- activity (% mutation frequency) [6]: 14.1
